According to patent US20180148496A1 (HUAHUI HEALTH, published 2018):
Where a chain is given by its changes, count along the chain named.

Experiments:
[1] = target: T1, NC36b: peptide comprising residues 4-38 of the pre-S1 domain of HBV L protein with a biotin modification at … (Hepatitis B virus (genotype  …, C-terminal K-Biotin)); test: ELISA on peptide captured by streptavidin
T1 peptide: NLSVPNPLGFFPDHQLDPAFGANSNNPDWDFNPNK

[2] = target: pre-S1 domain of the L envelope protein on HBV (genotype C) virus (Hepatitis B virus genotype C); test: cell-based or functional assay
[3] = target: pre-S1 domain of the L envelope protein on HBV (genotype B) virus (Hepatitis B virus genotype B); test: cell-based or functional assay
[4] = target: pre-S1 domain of the L envelope protein on HBV (genotype D) virus (Hepatitis B virus genotype D); test: cell-based or functional assay

B1: m36 (antibody, V domains shown)
VH: QMQLVQSGGGLVQPGRSLRLSCAASGFTFDDYAMHWVRQAPGKGLEWVSGISWNSGSIGYADSVKGRFTISRDNAKNSLYLQMNSLRAEDTALYYCAKTSYGGAFDIWGQGTMVTVSS
VL: QPVLTQSPSASGTPGQRVTISCSGNTSNIGSYYAYWYQQLPGTAPKLLIYDNNQRPSGIPARFSGSKSGTSASLAISGLQSEDEADYYCATWDDSLNGPVFGGGTKVTVL
- binding result [1]: binds

B2: A14 (antibody, V domains shown)
VH: QVQLQQSGPGLVKPSQTLSLTCAISGDSVSSNSAAWNWIRQSPSRGLEWLGRTYYRSKWYNDYAVSVKSRITINPDTSKNQFSLQLNSVTPEDTAVYYCARGTRWGMDVWGQGTLVTVSS
VL: QSVLTQPPSASGTPGQRVTISCSGSSSNIGSYYVYWYQQFPGTAPKLLIYGNNQRPSGVPDRFSGSKSGTSASLAITGLQAEDEADYYCQSYDSSLSGVIFGGGTKLTVL
- IC50 of HBV neutralization, genotype C [2]: 0.03 nM
- IC50 of HBV neutralization, genotype B [3]: 0.08 nM
- HBV (genotype D) neutralization activity, against HBIG [4]: > 1000 fold
- IC50 of HBV neutralization, genotype D [4]: 0.01 nM

B3: #8 (antibody, V domains shown)
VH: B2 VH
VL: QSVVTQPPSVSAAPGQKVTISCSGSSSNIGNYYVSWYQHLPGTAPKLLIYDNAKRPSGIPDRFSGSKSGTSATLGITGLRAEDEADYYCQSYDNSLSGLVFGGGTKLTVL
- HBV (genotype D) neutralization, against A14 [4]: 5 fold

B4: 2H5 (antibody, V domains shown)
VH: B2 VH with A23G, N32K, Y60H, T103Q, R104M, W105G, G106A, M107L, L115T
VL: B2 VL
- IC50 in HBV infection assay, against KR127 [4]: 11 fold

B5: m1Q (antibody, V domains shown)
VH: QVQLVESGGGVVQPGRSLRLSCAASGFTFSSYAMHWVRQAPGKGLEQVAVISYDGSNKYYVDSVKGRFTISRDNSKNTLYLQMNSLRAEDTAVYYCARSTYGMDVWGQGTTVTVSS
VL: DVVMTQSPLSLPVTLGQSASISCRSSQSLVHSDGNTYLNWFQQRPGQSPRRLIYKVSNRDSGVPDRFSGSGSDTDFTLEISRVEAEDVGIYYCMQGTHWWTFGQGTKLDIK
notes: also called m10Q (label of the VL entry)
- binding result [1]: binds
